pIC50: −log10 of the molar value.

Results on four substances are retold here after patent US20120288494A1.

The target of one assay is IL-12 (UniProt P29460). Kind of assay: receptor binding assay (RBA).
A further assay has as its target human IL-12 p70 (human) (UniProt P29460). Kind of assay: koff; method not given.

human IL-12 p70 (human), sequence (P29460 23-328, chain 1 of 2): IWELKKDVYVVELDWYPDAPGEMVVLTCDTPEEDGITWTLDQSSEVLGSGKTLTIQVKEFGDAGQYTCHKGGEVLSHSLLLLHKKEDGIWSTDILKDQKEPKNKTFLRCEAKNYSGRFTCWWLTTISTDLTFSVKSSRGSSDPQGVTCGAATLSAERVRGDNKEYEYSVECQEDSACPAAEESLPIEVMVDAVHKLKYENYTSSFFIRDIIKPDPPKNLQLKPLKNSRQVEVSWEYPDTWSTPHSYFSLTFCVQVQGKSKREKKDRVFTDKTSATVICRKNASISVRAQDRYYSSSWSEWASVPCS
human IL-12 p70 (human), sequence (chain, as listed by the source, chain 2 of 2): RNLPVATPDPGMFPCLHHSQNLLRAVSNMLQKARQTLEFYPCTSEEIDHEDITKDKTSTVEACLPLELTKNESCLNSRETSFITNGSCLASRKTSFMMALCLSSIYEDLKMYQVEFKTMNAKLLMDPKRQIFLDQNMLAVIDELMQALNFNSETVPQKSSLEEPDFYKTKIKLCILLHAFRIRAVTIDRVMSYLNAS
IL-12, sequence (P29460 23-328, chain 1 of 2): as the sequence (P29460 23-328, chain 1 of 2) above
IL-12, sequence (P29459 23-219, chain 2 of 2, further chain): as the sequence (chain, as listed by the source, chain 2 of 2) above

In the assay with IL-12, Y61 L50Y showed a pIC50 of 10.70.
Same read-out and setting: under Y61 L94Y stands 10.22.
Turning to “Y61 with Asn-L31 mutated to aspartate (antibody)”, the fold increase in koff (against Y61) with human IL-12 p70 (human) stood at 2.5 fold.
“Y61 with His-H95 mutated to glutamate (antibody)” yielded a fold increase in koff (against Y61) in the assay with human IL-12 p70 (human) of 8 fold.

One may read the pIC50 as −log10 of the IC50, conventionally taken in molar units. Higher therefore signals a low IC50.
